Assay results as given in article PMC9468113.

Target: MST-Red-labeled human MIF (human) (UniProt P14174)
Test: MST; Monolith NT.115, 25 °C; MST-Red-MIF at fixed concentration (312 nM with CXCL4L1, 456 nM with CXCL4) with serial dilutions of the chemokine; 10 mM Tris-HCl, pH 8.0, 0.01% BSA; both in solution

MST-Red-labeled human MIF (human), sequence (P14174 2-115): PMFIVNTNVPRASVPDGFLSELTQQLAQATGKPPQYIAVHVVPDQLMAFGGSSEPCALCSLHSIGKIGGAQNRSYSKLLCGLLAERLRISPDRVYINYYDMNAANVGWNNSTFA

Kd: 2000 nM
Substance: recombinant human CXCL4 (PF4), Peprotech (from UniProt P02776 32-101) (natural protein)
